This is an account of results in PMC6370633, “Mechanistic Insight Into the Interaction Between Helicobacter pylori Urease Subunit α and Its Molecular Chaperone Hsp60” (Frontiers in Microbiology, 2019).

The chains are these.
T1: UreA-GST (UreA fused with GST tag on its C-terminus) (Helicobacter pylori 26695, UniProt P14916 1-238)
T1 construct: source: E. coli BL21(DE3), supernatant immobilized on glutathione Sepharose 4B beads; not shown: GST, C-terminal, kept
T1 sequence: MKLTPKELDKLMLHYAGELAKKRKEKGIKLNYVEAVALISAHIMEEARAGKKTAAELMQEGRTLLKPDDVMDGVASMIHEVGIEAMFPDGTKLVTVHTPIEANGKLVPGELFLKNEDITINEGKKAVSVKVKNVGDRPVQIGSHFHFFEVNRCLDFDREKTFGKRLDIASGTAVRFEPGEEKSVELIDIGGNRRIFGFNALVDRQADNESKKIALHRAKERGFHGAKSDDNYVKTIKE

B1: Helicobacter pylori Hsp60 with a 6 × His tag on its C terminus (natural protein, Helicobacter pylori 26695, UniProt P42383 1-546, looked up)
chain: MAKEIKFSDSARNLLFEGVRQLHDAVKVTMGPRGRNVLIQKSYGAPSITKDGVSVAKEIELSCPVANMGAQLVKEVASKTADAAGDGTTTATVLAYSIFKEGLRNITAGANPIEVKRGMDKAAEAIINELKKASKKVGGKEEITQVATISANSDHNIGKLIADAMEKVGKDGVITVEEAKGIEDELDVVEGMQFDRGYLSPYFVTNAEKMTAQLDNAYILLTDKKISSMKDILPLLEKTMKEGKPLLIIAEDIEGEALTTLVVNKLRGVLNIAAVKAPGFGDRRKEMLKDIAILTGGQVISEELGLSLENAEVEFLGKAGRIVIDKDNTTIVDGKGHSHDVKDRVAQIKTQIASTTSDYDKEKLQERLAKLSGGVAVIKVGAASEVEMKEKKDRVDDALSATKAAVEEGIVIGGGAALIRAAQKVHLNLHDDEKVGYEIIMRAIKAPLAQIAINAGYDGGVVVNEVEKHEGHFGFNASNGKYVDMFKEGIIDPLKVERIALQNAVSVSSLLLTTEATVHEIKEEKAAPAMPDMGGMGGMGGMGGMM
notes: also called recombinant Hsp60; source: E. coli BL21(DE3), purified (Ni-NTA, Sephadex G-75 gel filtration); not shown: His6, C-terminal, kept
B2: UreA-His (urease α subunit fused with a His tag on its C-terminus) (natural protein)
chain: T1 sequence
notes: also called wild-type UreA-His; urease subunit α; source: E. coli BL21(DE3), purified (Ni-NTA); not shown: His tag, C-terminal, kept
B3: UreA-His Y15A (natural protein)
chain: T1 sequence with Y15A
notes: source: E. coli BL21(DE3), purified as wild-type UreA-His; not shown: His tag, C-terminal, kept
B4: UreA-His K26A (natural protein)
chain: T1 sequence with K26A
notes: as for B3
B5: UreA-His D68A (natural protein)
chain: T1 sequence with D68A
notes: as for B3
B6: UreA-His K66A (natural protein)
chain: T1 sequence with K66A
notes: as for B3
B7: UreA-His E25A (natural protein)
chain: T1 sequence with E25A
notes: as for B3
B8: UreA-His R23A (natural protein)
chain: T1 sequence with R23A
notes: as for B3
B9: UreA-His K22A (natural protein)
chain: T1 sequence with K22A
notes: as for B3

Experiment [1] addresses T1, UreA-GST (UreA fused with GST tag on …). Kind of experiment: pull-down; GST-fused proteins on glutathione Sepharose 4B beads (20 μl), incubated with 0.4 ml purified Hsp60 (1 mg/ml in 50 mM Tris-HCl, pH 8.0) at 4°C for 2 h; washed four times; Western blot (anti-His) and SDS-PAGE. Conditions: both partners purified.
The target of experiment [2] is B1. Kind of experiment: SPR; BIAcore T100; Hsp60 immobilized on CM5 chip (~600 RU); UreA-His or mutants as analytes (0.36-2.19 μM); PBS pH 7.4, 30 μl/min, 25°C; kinetic analysis, global fit to 1:1 Langmuir model. The note with it: both partners purified.

Substitutions are numbered along the chain they refer to.

As for B1, in experiment [1], the “stoichiometry N” value was ~1 Hsp60:UreA-GST.
Consider B2, for which, in experiment [2], the Kd (commonly the equilibrium constant for the complex coming apart) amounted to 17 nM; the koff (as a rule, a measure of how fast the partners let go of each other) came out at 0.000126 s⁻¹; the kon (usually the rate constant with which the complex forms) came to 7286 ± 15 M⁻¹ s⁻¹.
In experiment [2], B3 came in with a dissociation constant Kd of 150 nM, a koff of 0.00164 s⁻¹ and a kon of 11200 ± 287 M⁻¹ s⁻¹.
Taken in the same sequence, the figures for B4 were 460 nM, 0.0122 s⁻¹ and 26200 ± 250 M⁻¹ s⁻¹.
On to B5, for which, in experiment [2], the Kd worked out at 2000 nM, the koff stood at 0.00227 s⁻¹ and the kon stood at 1160 ± 41 M⁻¹ s⁻¹.
On the same counts, the results for B6 are 210 nM, 0.00115 s⁻¹ and 5400 ± 214 M⁻¹ s⁻¹.
On the same counts, the results for B7 are 140 nM, 0.00567 s⁻¹ and 40200 ± 1670 M⁻¹ s⁻¹.
In the case of B8, in experiment [2], the affinity, expressed as Kd, was 280 nM; the koff was found to be 0.00144 s⁻¹; the kon came to 5070 ± 85 M⁻¹ s⁻¹.
In experiment [2], B9 displayed a Kd of 310 nM, a koff of 0.00179 s⁻¹ and a kon of 5840 ± 146 M⁻¹ s⁻¹.
